Test results from PMC11982978 (2025).
Square brackets hold non-standard residues; d marks the D form. Ends that are not written are not given here.

Molecular target: Active phosphorylated His6-tagged ERK2 WT (rat (p-0033 says mouse), UniProt P63086 3-358, phosphorylated (active form; sites not given))

For [dL][dC][dA][dR][dR]G[dL][dY][dC][dL][dS][dL][dD][dH] (cysteine pairing not given here) [FAAP100 D-peptide], the IC50 was 92 µM.
